The target of one experiment is Plasmin (human) (Human) (UniProt P00747). As to the kind of experiment: enzyme inhibition at equilibrium, apparent Ki from fit to the tight binding inhibitor equation.
Experiment [1] deals with Chymotrypsin (bovine) (Bovine) (UniProt P00766). The experiment is described as above.
The target in experiment [2] is Cathepsin G (human) (Human) (UniProt P08311). Described as above.
Experiment [3] addresses Trypsin (bovine) (Bovine) (UniProt P00760). The description is as above.
Sequence of UniProt P00760 (P00760 24-246): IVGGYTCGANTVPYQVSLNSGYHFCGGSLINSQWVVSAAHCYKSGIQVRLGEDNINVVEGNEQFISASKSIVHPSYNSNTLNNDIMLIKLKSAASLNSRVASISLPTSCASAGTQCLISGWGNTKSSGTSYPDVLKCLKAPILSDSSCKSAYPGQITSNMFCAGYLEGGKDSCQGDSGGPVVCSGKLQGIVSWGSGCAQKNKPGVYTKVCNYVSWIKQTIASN
Experiment [4] concerns the target Tissue kallikrein (porcine) (Porcine) (UniProt P00752). Described as above.
Sequence of UniProt P00752 (P00752 8-246 limits assumed): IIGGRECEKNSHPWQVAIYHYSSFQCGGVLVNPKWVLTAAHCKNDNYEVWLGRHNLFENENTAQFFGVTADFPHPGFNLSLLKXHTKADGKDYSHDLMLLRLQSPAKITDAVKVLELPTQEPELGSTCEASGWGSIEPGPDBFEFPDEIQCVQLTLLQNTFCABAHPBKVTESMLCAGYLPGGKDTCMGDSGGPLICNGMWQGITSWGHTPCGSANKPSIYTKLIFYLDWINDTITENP
For experiment [5], the target named is Factor Xa (human) (Human) (UniProt P00742). Nature of the experiment: cell-based or functional assay.
Sequence of UniProt P00742 (P00742 41-488 limits assumed): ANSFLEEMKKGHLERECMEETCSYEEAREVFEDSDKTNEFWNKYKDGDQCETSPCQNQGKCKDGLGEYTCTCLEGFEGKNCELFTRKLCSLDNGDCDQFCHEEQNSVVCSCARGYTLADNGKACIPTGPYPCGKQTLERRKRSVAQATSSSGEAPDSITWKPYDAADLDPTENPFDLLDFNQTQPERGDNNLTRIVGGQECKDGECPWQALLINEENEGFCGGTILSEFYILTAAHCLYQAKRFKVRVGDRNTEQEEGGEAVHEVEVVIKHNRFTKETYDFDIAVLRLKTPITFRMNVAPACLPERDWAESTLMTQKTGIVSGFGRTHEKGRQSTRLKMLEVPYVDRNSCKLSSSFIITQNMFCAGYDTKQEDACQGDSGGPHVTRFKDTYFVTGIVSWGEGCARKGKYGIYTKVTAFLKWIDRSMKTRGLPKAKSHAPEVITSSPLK
The target of experiment [6] is Chymotrypsin (bovine) (Bovine) (UniProt P00766). Nature of the experiment: cell-based or functional assay.
Experiment [7] addresses Trypsin (bovine) (Bovine) (UniProt P00760). Nature of the experiment: cell-based or functional assay.

pKi: −log10 of the molar value.

Sequence of UniProt P00747 (P00747 97-810 limits assumed): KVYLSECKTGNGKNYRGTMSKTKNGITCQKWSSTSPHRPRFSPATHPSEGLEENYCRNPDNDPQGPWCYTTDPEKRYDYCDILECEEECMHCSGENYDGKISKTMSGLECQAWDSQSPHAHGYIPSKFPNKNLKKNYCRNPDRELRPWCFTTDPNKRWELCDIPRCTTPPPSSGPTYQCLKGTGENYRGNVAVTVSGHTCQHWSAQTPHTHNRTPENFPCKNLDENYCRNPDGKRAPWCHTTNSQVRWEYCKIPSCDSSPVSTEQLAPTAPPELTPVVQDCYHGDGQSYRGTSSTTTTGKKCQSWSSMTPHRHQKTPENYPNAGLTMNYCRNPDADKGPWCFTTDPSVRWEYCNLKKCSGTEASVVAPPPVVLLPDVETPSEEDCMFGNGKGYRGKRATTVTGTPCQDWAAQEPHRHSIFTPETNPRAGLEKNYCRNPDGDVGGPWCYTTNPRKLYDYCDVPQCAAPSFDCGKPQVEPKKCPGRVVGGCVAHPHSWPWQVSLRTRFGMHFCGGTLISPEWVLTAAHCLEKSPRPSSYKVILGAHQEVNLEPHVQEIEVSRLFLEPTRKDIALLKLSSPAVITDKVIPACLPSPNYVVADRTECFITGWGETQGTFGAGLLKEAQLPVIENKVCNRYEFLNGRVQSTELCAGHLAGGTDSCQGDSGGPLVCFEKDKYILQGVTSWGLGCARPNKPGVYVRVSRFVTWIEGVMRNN
Sequence of UniProt P08311 (P08311 21-244 limits assumed): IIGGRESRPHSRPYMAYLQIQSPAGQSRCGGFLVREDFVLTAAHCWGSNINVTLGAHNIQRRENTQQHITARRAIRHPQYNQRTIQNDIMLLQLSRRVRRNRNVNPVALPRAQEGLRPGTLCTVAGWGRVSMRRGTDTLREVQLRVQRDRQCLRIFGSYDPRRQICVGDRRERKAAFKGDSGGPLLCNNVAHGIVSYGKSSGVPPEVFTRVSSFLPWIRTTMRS

With hirustasin, the pKi with Plasmin (human) (Human) was 6.86; in experiment [1], 8.19; in experiment [2], 8.54; in experiment [3] it was 8.15; in experiment [4] it was 7.89. This substance also came in with a Partial Thromboplastin Time, hirustasin at 1.3 mM; buffer 47.3 s in experiment [5] of 47.9 s. The substance further had a Quick (prothrombin time), hirustasin at 1.3 mM; buffer 79 % in experiment [5] of 80%. The SA [IU/mg] (specific inhibitory activity against chymotrypsin, Mono S pool) in experiment [6] turned out to be 0.15 IU/mg. In addition, the SA [IU/mg] (specific inhibitory activity against trypsin, Mono S pool) in experiment [7] was determined as 2.7 IU/mg.

The values above are taken from EP0662514A1.
